From patent publication US20180028658A1

Legend:
[1] = biological target: HIV-1 Yu2 gp160 (Env) expressed on the 293T cell surface (HIV-1 Yu2) (UniProt P35961); experiment: flow cytometry, 293T cells transfected with Yu2 gp160, primary antibody 10 µg/ml
[2] = biological target: HIV-1 gp41 (strain not stated) (HIV-1); experiment: SPR (BIAcore), Env protein immobilized on CM5 chip, antibody as analyte
[3] = biological target: Recombinant HIV-1 gp41MN (HIV-1 MN) (UniProt P05877); experiment: ELISA on coated gp41 (HIV-1 MN per the example), OD at 405 nm
[4] = biological target: full-length gp120 monomer (HIV-1 (Yu2 by the materials, not named in the results)) (UniProt P35961); experiment: ELISA on coated full-length gp120 monomer, OD at 405 nm, 1x PBS as blank
[5] = biological target: BG505 SOSIP.664 gp140 trimer (HIV-1 BG505); experiment: ELISA on coated BG505 SOSIP.664 gp140 trimer, OD at 405 nm, 1x PBS as blank
[6] = biological target: SF162 gp140 trimer (HIV-1 SF162) (UniProt P19550); experiment: ELISA on coated SF162 gp140 trimer, OD at 405 nm, 1x PBS as blank
Chain of SF162 gp140 trimer (HIV-1 SF162) (P19550 32-675 limits assumed): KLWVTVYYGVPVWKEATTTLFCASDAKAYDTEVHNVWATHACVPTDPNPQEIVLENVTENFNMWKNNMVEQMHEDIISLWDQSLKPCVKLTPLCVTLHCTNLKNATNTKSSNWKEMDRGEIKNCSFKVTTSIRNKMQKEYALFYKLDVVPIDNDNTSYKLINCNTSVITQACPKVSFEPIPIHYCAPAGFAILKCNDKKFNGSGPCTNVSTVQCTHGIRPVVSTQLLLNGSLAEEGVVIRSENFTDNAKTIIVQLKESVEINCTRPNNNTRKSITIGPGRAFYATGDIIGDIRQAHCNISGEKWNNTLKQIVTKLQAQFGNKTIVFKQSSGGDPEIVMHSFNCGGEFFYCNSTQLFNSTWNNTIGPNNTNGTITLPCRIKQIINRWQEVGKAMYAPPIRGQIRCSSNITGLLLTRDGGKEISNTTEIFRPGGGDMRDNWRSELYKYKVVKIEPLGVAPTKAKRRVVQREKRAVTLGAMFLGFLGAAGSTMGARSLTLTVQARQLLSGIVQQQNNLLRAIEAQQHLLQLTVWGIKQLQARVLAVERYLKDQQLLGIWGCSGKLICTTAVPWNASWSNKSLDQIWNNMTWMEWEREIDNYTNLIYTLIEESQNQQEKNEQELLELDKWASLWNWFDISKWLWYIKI

[7] = biological target: full-length gp120 monomer (HIV-1 (Yu2 by the materials, not named in the results)) (UniProt P35961); experiment: SPR (BIAcore), Env protein immobilized on CM5 chip, antibody as analyte
[8] = biological target: full-length gp120 monomer (HIV-1 (Yu2 by the materials, not named in the results)) (UniProt P35961); experiment: method not given
[9] = biological target: BG505 SOSIP.664 gp140 trimer (HIV-1 BG505); experiment: method not given
[10] = biological target: HIV-1 gp41 (strain not stated) (HIV-1); experiment: method not given

Row | Substance | Percentage of recognition of HIV-1 Env [1] | further results
1 | HIV 1 V3 Monoclonal Antibody (2191) | 2.9% | 
2 | HIV 1 V3 Monoclonal Antibody (2219) | 3.1% | 
3 | HIV 1 V3 Monoclonal Antibody (2442) | 6.6% | 
4 | HIV 1 V3 Monoclonal Antibody (3074) | 3.4% | 
5 | HIV 1 V3 Monoclonal Antibody (3869) | 2.6% | 
6 | HIV 1 gp41 Monoclonal Antibody (167-7, 67-D IV) | 11.8% | 
7 | HIV-1 MAb PG9 (antibody) | 6% | 
8 | HIV-1 MAb PG16 (antibody) | 1.5% | 
9 | HIV-1 V2V3 Monoclonal Antibody (2909) | 5.6% | 
10 | HIV-1 anti-gp41 mAb (7H6) (antibody) | 19.8% | 
11 | HIV-1 anti-gp41 mAb (10E8) (antibody) | 11.7% | Kd [2]: 15.5 nM; koff [2]: 0.000901 s⁻¹
12 | HIV-1 gp41 MAb (IgG1 Z13e1) (antibody) | 5.2% | 
13 | HIV-1 gp41 Monoclonal (98-6) (antibody) | 3.5% | 
14 | HIV-1 gp41 Monoclonal (126-7) (antibody) | 3.2% | 
15 | HIV-1 gp41 Monoclonal Antibody (2F5) | 9.9% | EC50 (read off the curve) [3]: 0.03 µg/mL
16 | HIV-1 gp41 Monoclonal Antibody (4E10) | 13.4% | EC50 (read off the curve) [3]: 0.03 µg/mL; Kd [2]: 10.8 nM; koff [2]: 2.14e-05 s⁻¹; kon [2]: 1980 M⁻¹ s⁻¹
17 | HIV-1 gp41 Monoclonal Antibody (5F3) | 6.4% | 

Row | Substance | Percentage of recognition of HIV-1 Env [1] | further results
18 | HIV-1 gp41 Monoclonal Antibody (50-69) | 4.5% | 
19 | HIV-1 gp41 Monoclonal Antibody (F240) | 3.5% | 
20 | HIV-1 gp120 MAb (39F) (antibody) | 2.6% | 
21 | HIV-1 gp120 MAb (A32) (antibody) | 79.2% | 
22 | HIV-1 gp120 MAb (HJ16) (antibody) | 17.6% | 
23 | HIV-1 gp120 MAb (VRC01) (antibody) | 6% | EC50 (read off the curve) [4]: 0.3 µg/mL; EC50 (read off the curve) [5]: 0.03 µg/mL; EC50 (read off the curve) [6]: 0.05 µg/mL
24 | HIV-1 gp120 MAb (VRC03) (antibody) | 6.4% | 
25 | HIV-1 gp120 Monoclonal (2G12) (antibody) | 22.8% | 
26 | HIV-1 gp120 Monoclonal Antibody (17b) | 1.5% | Kd [7]: 0.982 nM; koff [7]: 2.59e-06 s⁻¹
27 | HIV-1 gp120 Monoclonal Antibody (48d) | 3.1% | 
28 | HIV-1 gp120 Monoclonal Antibody (F105) | 4.5% | 
29 | HIV-1 gp120 Monoclonal Antibody (F425 B4a1) | 2.5% | 
30 | HIV-1 gp120 Monoclonal Antibody (F425 B4e8) | 6.4% | 
31 | HIV-1 gp120 Monoclonal Antibody (IgG1 b12) | 9.8% | 
32 | Monoclonal Antibodies to HIV-1 V3 (268) (antibody) | 2.1% | 
33 | NIH45-46 (antibody) |  | Kd [8]: 0.1 nM; Kd [9]: 0.1 nM; Kd [10]: 1 nM; EC50 (read off the curve) [5]: 0.02 µg/mL; EC50 (read off the curve) [6]: 0.2 µg/mL
